According to US20170008943A1 (Novo Nordisk, published 2017):
*1 amine or outer side, *2 acyl side, *3 side chain or, on linkers, in order; H or OH if unused. Side-chain parts run from the residue outwards. [ ]: non-standard residue; d: D form. The star is where a group is joined. γGlu = O=C(O)[C@H](CCC(=O)[*:2])N[*:1]; Desaminohistidyl = O=C(CCc1c[nH]cn1)*; Aib = CC(C)(N)C(=O)O

Assays:
[1] = target: T1, human glucagon receptor (human, UniProt P47871 26-477); assay: cell-based or functional assay
T1 sequence (P47871 26-477): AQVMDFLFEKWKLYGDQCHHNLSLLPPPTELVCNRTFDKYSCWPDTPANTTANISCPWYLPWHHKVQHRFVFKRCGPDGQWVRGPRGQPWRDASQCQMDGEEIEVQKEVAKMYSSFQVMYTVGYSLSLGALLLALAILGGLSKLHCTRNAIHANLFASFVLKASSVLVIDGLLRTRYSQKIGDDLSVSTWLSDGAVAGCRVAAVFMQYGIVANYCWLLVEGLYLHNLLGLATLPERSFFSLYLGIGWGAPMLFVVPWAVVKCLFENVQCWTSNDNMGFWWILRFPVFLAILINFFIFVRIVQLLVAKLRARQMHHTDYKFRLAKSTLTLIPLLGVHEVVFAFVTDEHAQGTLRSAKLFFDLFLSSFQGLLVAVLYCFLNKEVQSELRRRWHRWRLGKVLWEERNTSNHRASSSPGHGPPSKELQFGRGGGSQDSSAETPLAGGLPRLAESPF

[2] = target: T1, human glucagon receptor; assay: displacement of 125I-glucagon from BHK membranes with human glucagon receptor (SPA), Assay (II)(b)

Binder	EC50 hGlucagonR (pM), CRE luciferase reporter in BHK cells [1]	IC50 [2]
[Desaminohistidyl]SHGTFTSDYSKYLD[Aib]RRAQDFVK([γGlu-γGlu-γGlu-γGlu-Ac])WLLST-OH (SMILES CC(=O)N[C@@H](CCC(=O)N[C@@H](CCC(=O)N[C@@H](CCC(=O)N[C@@H](CCC(=O)NCCCC[C@H](NC(=O)[C@@H](NC(=O)[C@H](Cc1ccccc1)NC(=O)[C@H](CC(=O)O)NC(=O)[C@H](CCC(N)=O)NC(=O)[C@H](C)NC(=O)[C@H](CCCNC(=N)N)NC(=O)[C@H](CCCNC(=N)N)NC(=O)C(C)(C)NC(=O)[C@H](CC(=O)O)NC(=O)[C@H](CC(C)C)NC(=O)[C@H](Cc1ccc(O)cc1)NC(=O)[C@H](CCCCN)NC(=O)[C@H](CO)NC(=O)[C@H](Cc1ccc(O)cc1)NC(=O)[C@H](CC(=O)O)NC(=O)[C@H](CO)NC(=O)[C@@H](NC(=O)[C@H](Cc1ccccc1)NC(=O)[C@@H](NC(=O)CNC(=O)[C@H](Cc1c[nH]cn1)NC(=O)[C@H](CO)NC(=O)CCc1c[nH]cn1)[C@@H](C)O)[C@@H](C)O)C(C)C)C(=O)N[C@@H](Cc1c[nH]c2ccccc12)C(=O)N[C@@H](CC(C)C)C(=O)N[C@@H](CC(C)C)C(=O)N[C@@H](CO)C(=O)N[C@H](C(=O)O)[C@@H](C)O)C(=O)O)C(=O)O)C(=O)O)C(=O)O, Imp and Aib written X under substitutions)	2 pM	0.3 nM
[Desaminohistidyl]SHGTFTSDYSKYLESRRAQEFVK([γGlu-γGlu-γGlu-Ac])WLLST-OH (SMILES CC(=O)N[C@@H](CCC(=O)N[C@@H](CCC(=O)N[C@@H](CCC(=O)NCCCC[C@H](NC(=O)[C@@H](NC(=O)[C@H](Cc1ccccc1)NC(=O)[C@H](CCC(=O)O)NC(=O)[C@H](CCC(N)=O)NC(=O)[C@H](C)NC(=O)[C@H](CCCNC(=N)N)NC(=O)[C@H](CCCNC(=N)N)NC(=O)[C@H](CO)NC(=O)[C@H](CCC(=O)O)NC(=O)[C@H](CC(C)C)NC(=O)[C@H](Cc1ccc(O)cc1)NC(=O)[C@H](CCCCN)NC(=O)[C@H](CO)NC(=O)[C@H](Cc1ccc(O)cc1)NC(=O)[C@H](CC(=O)O)NC(=O)[C@H](CO)NC(=O)[C@@H](NC(=O)[C@H](Cc1ccccc1)NC(=O)[C@@H](NC(=O)CNC(=O)[C@H](Cc1c[nH]cn1)NC(=O)[C@H](CO)NC(=O)CCc1c[nH]cn1)[C@@H](C)O)[C@@H](C)O)C(C)C)C(=O)N[C@@H](Cc1c[nH]c2ccccc12)C(=O)N[C@@H](CC(C)C)C(=O)N[C@@H](CC(C)C)C(=O)N[C@@H](CO)C(=O)N[C@H](C(=O)O)[C@@H](C)O)C(=O)O)C(=O)O)C(=O)O, Imp written X under substitutions)	6 pM	1.5 nM
[Desaminohistidyl]SHGTFTSDYSKYLESRRAQEFVK([Gly-γGlu-γGlu-γGlu-γGlu-Ac])WLLST-OH (SMILES CC(=O)N[C@@H](CCC(=O)N[C@@H](CCC(=O)N[C@@H](CCC(=O)N[C@@H](CCC(=O)NCC(=O)NCCCC[C@H](NC(=O)[C@@H](NC(=O)[C@H](Cc1ccccc1)NC(=O)[C@H](CCC(=O)O)NC(=O)[C@H](CCC(N)=O)NC(=O)[C@H](C)NC(=O)[C@H](CCCNC(=N)N)NC(=O)[C@H](CCCNC(=N)N)NC(=O)[C@H](CO)NC(=O)[C@H](CCC(=O)O)NC(=O)[C@H](CC(C)C)NC(=O)[C@H](Cc1ccc(O)cc1)NC(=O)[C@H](CCCCN)NC(=O)[C@H](CO)NC(=O)[C@H](Cc1ccc(O)cc1)NC(=O)[C@H](CC(=O)O)NC(=O)[C@H](CO)NC(=O)[C@@H](NC(=O)[C@H](Cc1ccccc1)NC(=O)[C@@H](NC(=O)CNC(=O)[C@H](Cc1c[nH]cn1)NC(=O)[C@H](CO)NC(=O)CCc1c[nH]cn1)[C@@H](C)O)[C@@H](C)O)C(C)C)C(=O)N[C@@H](Cc1c[nH]c2ccccc12)C(=O)N[C@@H](CC(C)C)C(=O)N[C@@H](CC(C)C)C(=O)N[C@@H](CO)C(=O)N[C@H](C(=O)O)[C@@H](C)O)C(=O)O)C(=O)O)C(=O)O)C(=O)O, Imp written X under substitutions)	9.9 pM	2.5 nM
[Desaminohistidyl]SHGTFTSDYSKYLESRRAQEFVQWLLSTK([γGlu-γGlu-γGlu-γGlu-Ac])-OH (SMILES CC(=O)N[C@@H](CCC(=O)N[C@@H](CCC(=O)N[C@@H](CCC(=O)N[C@@H](CCC(=O)NCCCC[C@H](NC(=O)[C@@H](NC(=O)[C@H](CO)NC(=O)[C@H](CC(C)C)NC(=O)[C@H](CC(C)C)NC(=O)[C@H](Cc1c[nH]c2ccccc12)NC(=O)[C@H](CCC(N)=O)NC(=O)[C@@H](NC(=O)[C@H](Cc1ccccc1)NC(=O)[C@H](CCC(=O)O)NC(=O)[C@H](CCC(N)=O)NC(=O)[C@H](C)NC(=O)[C@H](CCCNC(=N)N)NC(=O)[C@H](CCCNC(=N)N)NC(=O)[C@H](CO)NC(=O)[C@H](CCC(=O)O)NC(=O)[C@H](CC(C)C)NC(=O)[C@H](Cc1ccc(O)cc1)NC(=O)[C@H](CCCCN)NC(=O)[C@H](CO)NC(=O)[C@H](Cc1ccc(O)cc1)NC(=O)[C@H](CC(=O)O)NC(=O)[C@H](CO)NC(=O)[C@@H](NC(=O)[C@H](Cc1ccccc1)NC(=O)[C@@H](NC(=O)CNC(=O)[C@H](Cc1c[nH]cn1)NC(=O)[C@H](CO)NC(=O)CCc1c[nH]cn1)[C@@H](C)O)[C@@H](C)O)C(C)C)[C@@H](C)O)C(=O)O)C(=O)O)C(=O)O)C(=O)O)C(=O)O, Imp written X under substitutions) [N^α([Imp1, His3, Glu15, Glu21, Leu27, …]	4 pM	2 nM
XSHGTFTSDYSKYLESRRAQEFVKWLLST (Imp (imidazopropionyl, des-amino-histidine) at position 1; N-epsilon of Lys24 acylated with acetyl-(gamma-Glu)5 substituent as in the name; C-terminal carboxylic acid, Imp written X under substitutions)	6 pM	2.7 nM
[Desaminohistidyl]SHGTFTSDYSKYLESRRAQEFVQWLLK([γGlu-γGlu-γGlu-γGlu-Ac])T-OH (SMILES CC(=O)N[C@@H](CCC(=O)N[C@@H](CCC(=O)N[C@@H](CCC(=O)N[C@@H](CCC(=O)NCCCC[C@H](NC(=O)[C@H](CC(C)C)NC(=O)[C@H](CC(C)C)NC(=O)[C@H](Cc1c[nH]c2ccccc12)NC(=O)[C@H](CCC(N)=O)NC(=O)[C@@H](NC(=O)[C@H](Cc1ccccc1)NC(=O)[C@H](CCC(=O)O)NC(=O)[C@H](CCC(N)=O)NC(=O)[C@H](C)NC(=O)[C@H](CCCNC(=N)N)NC(=O)[C@H](CCCNC(=N)N)NC(=O)[C@H](CO)NC(=O)[C@H](CCC(=O)O)NC(=O)[C@H](CC(C)C)NC(=O)[C@H](Cc1ccc(O)cc1)NC(=O)[C@H](CCCCN)NC(=O)[C@H](CO)NC(=O)[C@H](Cc1ccc(O)cc1)NC(=O)[C@H](CC(=O)O)NC(=O)[C@H](CO)NC(=O)[C@@H](NC(=O)[C@H](Cc1ccccc1)NC(=O)[C@@H](NC(=O)CNC(=O)[C@H](Cc1c[nH]cn1)NC(=O)[C@H](CO)NC(=O)CCc1c[nH]cn1)[C@@H](C)O)[C@@H](C)O)C(C)C)C(=O)N[C@H](C(=O)O)[C@@H](C)O)C(=O)O)C(=O)O)C(=O)O)C(=O)O, Imp written X under substitutions)	6 pM	2.6 nM
[Desaminohistidyl]SHGTFTSDYSKYLESRRAQEFVQWLLSK([γGlu-γGlu-γGlu-γGlu-Ac])-OH (SMILES CC(=O)N[C@@H](CCC(=O)N[C@@H](CCC(=O)N[C@@H](CCC(=O)N[C@@H](CCC(=O)NCCCC[C@H](NC(=O)[C@H](CO)NC(=O)[C@H](CC(C)C)NC(=O)[C@H](CC(C)C)NC(=O)[C@H](Cc1c[nH]c2ccccc12)NC(=O)[C@H](CCC(N)=O)NC(=O)[C@@H](NC(=O)[C@H](Cc1ccccc1)NC(=O)[C@H](CCC(=O)O)NC(=O)[C@H](CCC(N)=O)NC(=O)[C@H](C)NC(=O)[C@H](CCCNC(=N)N)NC(=O)[C@H](CCCNC(=N)N)NC(=O)[C@H](CO)NC(=O)[C@H](CCC(=O)O)NC(=O)[C@H](CC(C)C)NC(=O)[C@H](Cc1ccc(O)cc1)NC(=O)[C@H](CCCCN)NC(=O)[C@H](CO)NC(=O)[C@H](Cc1ccc(O)cc1)NC(=O)[C@H](CC(=O)O)NC(=O)[C@H](CO)NC(=O)[C@@H](NC(=O)[C@H](Cc1ccccc1)NC(=O)[C@@H](NC(=O)CNC(=O)[C@H](Cc1c[nH]cn1)NC(=O)[C@H](CO)NC(=O)CCc1c[nH]cn1)[C@@H](C)O)[C@@H](C)O)C(C)C)C(=O)O)C(=O)O)C(=O)O)C(=O)O)C(=O)O, Imp written X under substitutions)	4 pM	5.1 nM
[Desaminohistidyl]SHGTFTSDYSKYLESRRAQK([γGlu-γGlu-γGlu-γGlu-Ac])FVQWLLST-OH (SMILES CC(=O)N[C@@H](CCC(=O)N[C@@H](CCC(=O)N[C@@H](CCC(=O)N[C@@H](CCC(=O)NCCCC[C@H](NC(=O)[C@H](CCC(N)=O)NC(=O)[C@H](C)NC(=O)[C@H](CCCNC(=N)N)NC(=O)[C@H](CCCNC(=N)N)NC(=O)[C@H](CO)NC(=O)[C@H](CCC(=O)O)NC(=O)[C@H](CC(C)C)NC(=O)[C@H](Cc1ccc(O)cc1)NC(=O)[C@H](CCCCN)NC(=O)[C@H](CO)NC(=O)[C@H](Cc1ccc(O)cc1)NC(=O)[C@H](CC(=O)O)NC(=O)[C@H](CO)NC(=O)[C@@H](NC(=O)[C@H](Cc1ccccc1)NC(=O)[C@@H](NC(=O)CNC(=O)[C@H](Cc1c[nH]cn1)NC(=O)[C@H](CO)NC(=O)CCc1c[nH]cn1)[C@@H](C)O)[C@@H](C)O)C(=O)N[C@@H](Cc1ccccc1)C(=O)N[C@H](C(=O)N[C@@H](CCC(N)=O)C(=O)N[C@@H](Cc1c[nH]c2ccccc12)C(=O)N[C@@H](CC(C)C)C(=O)N[C@@H](CC(C)C)C(=O)N[C@@H](CO)C(=O)N[C@H](C(=O)O)[C@@H](C)O)C(C)C)C(=O)O)C(=O)O)C(=O)O)C(=O)O, Imp written X under substitutions)	17 pM	5.2 nM
